According to the supplement of paper PMC9112550, “Optimization of the antimicrobial peptide Bac7 by deep mutational scanning” (BMC Biology, 2022):

system: Escherichia coli TOP10; test: shrunken log2 fold change of peptide-encoding DNA abundance (4.5 h post-induction vs induction); higher = less antimicrobial activity (less host growth inhibition); details: time post-induction: 4.5 h; library: site-saturation at positions 5, 18, 19, 20
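Further: peptides expressed intracellularly from a pBAD plasmid library in pooled LB shake-flask culture, induced with 0.3% L-arabinose, DNA abundance read by NGS, three biological replicates, DESeq2 with apeglm shrinkage.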

Sequence | shrunken log2 fold change
RRIRPRPPRLPRPRPRPNMWPRP | -0.084
RRIRPRPPRLPRPRPRPNPDPRP | 0.0105
RRIRPRPPRLPRPRPRPNPTPRP | 0.0721
RRIRPRPPRLPRPRPRPNPVPRP | -0.0737
RRIRPRPPRLPRPRPRPNPWPRP | 0.277
RRIRPRPPRLPRPRPRPNQEPRP | 0.0875
RRIRPRPPRLPRPRPRPNQLPRP | -0.258
RRIRPRPPRLPRPRPRPNQTPRP | 0.106
RRIRPRPPRLPRPRPRPNQVPRP | 0.0456
RRIRPRPPRLPRPRPRPNRFPRP | -0.0502
RRIRPRPPRLPRPRPRPNRTPRP | -0.0847
RRIRPRPPRLPRPRPRPNTCPRP | -0.00653
RRIRPRPPRLPRPRPRPNTGPRP | 0.881
RRIRPRPPRLPRPRPRPNWCPRP | 0.0235
RRIRPRPPRLPRPRPRPNWGPRP | -0.057
RRIRPRPPRLPRPRPRPNYLPRP | -0.0996
RRIRPRPPRLPRPRPRPNYSPRP | -0.39
RRIRPRPPRLPRPRPRPNYVPRP | -0.352
RRIRPRPPRLPRPRPRPPAQPRP | 0.57
RRIRPRPPRLPRPRPRPPCQPRP | 0.268
RRIRPRPPRLPRPRPRPPCWPRP | 0.468
RRIRPRPPRLPRPRPRPPDFPRP | -0.256
RRIRPRPPRLPRPRPRPPDKPRP | 0.266
RRIRPRPPRLPRPRPRPPDLPRP | 0.366
RRIRPRPPRLPRPRPRPPDMPRP | 0.507

Sequence | shrunken log2 fold change
RRIRPRPPRLPRPRPRPPDNPRP | 0.246
RRIRPRPPRLPRPRPRPPDVPRP | 0.274
RRIRPRPPRLPRPRPRPPEVPRP | -0.0265
RRIRPRPPRLPRPRPRPPFQPRP | 0.119
RRIRPRPPRLPRPRPRPPGIPRP | 0.151
RRIRPRPPRLPRPRPRPPGTPRP | 0.317
RRIRPRPPRLPRPRPRPPKIPRP | 0.0961
RRIRPRPPRLPRPRPRPPKKPRP | 0.0716
RRIRPRPPRLPRPRPRPPKWPRP | 0.469
RRIRPRPPRLPRPRPRPPLRPRP | 0.336
RRIRPRPPRLPRPRPRPPNCPRP | 0.215
RRIRPRPPRLPRPRPRPPNGPRP | 0.593
RRIRPRPPRLPRPRPRPPNIPRP | -0.414
RRIRPRPPRLPRPRPRPPQVPRP | 0.368
RRIRPRPPRLPRPRPRPPRDPRP | 0.521
RRIRPRPPRLPRPRPRPPSPPRP | 0.439
RRIRPRPPRLPRPRPRPPTMPRP | 0.223
RRIRPRPPRLPRPRPRPPVCPRP | 0.409
RRIRPRPPRLPRPRPRPPVQPRP | 0.341
RRIRPRPPRLPRPRPRPPVSPRP | 0.0379
RRIRPRPPRLPRPRPRPPWFPRP | 0.32
RRIRPRPPRLPRPRPRPPYEPRP | -0.145
RRIRPRPPRLPRPRPRPPYLPRP | -0.376
RRIRPRPPRLPRPRPRPQCQPRP | 0.00656
RRIRPRPPRLPRPRPRPQCRPRP | 0.00385

Sequence | shrunken log2 fold change
RRIRPRPPRLPRPRPRPQDAPRP | 0.355
RRIRPRPPRLPRPRPRPQDFPRP | -0.0957
RRIRPRPPRLPRPRPRPQDIPRP | -0.0806
RRIRPRPPRLPRPRPRPQGVPRP | 0.07
RRIRPRPPRLPRPRPRPQHQPRP | -0.226
RRIRPRPPRLPRPRPRPQHSPRP | -0.161
RRIRPRPPRLPRPRPRPQIAPRP | 0.115
RRIRPRPPRLPRPRPRPQKMPRP | -0.201
RRIRPRPPRLPRPRPRPQKYPRP | -0.257
RRIRPRPPRLPRPRPRPQLLPRP | 0.271
RRIRPRPPRLPRPRPRPQMIPRP | -0.594
RRIRPRPPRLPRPRPRPQMQPRP | -0.254
RRIRPRPPRLPRPRPRPQNEPRP | -0.183
RRIRPRPPRLPRPRPRPQNGPRP | -0.281
RRIRPRPPRLPRPRPRPQNLPRP | -0.0683
RRIRPRPPRLPRPRPRPQNMPRP | -0.358
RRIRPRPPRLPRPRPRPQQIPRP | -0.124
RRIRPRPPRLPRPRPRPQRQPRP | 0.109
RRIRPRPPRLPRPRPRPQSIPRP | -0.105
RRIRPRPPRLPRPRPRPQSLPRP | -0.288
RRIRPRPPRLPRPRPRPQTEPRP | 0.0275
RRIRPRPPRLPRPRPRPQVSPRP | -0.00288
RRIRPRPPRLPRPRPRPQWSPRP | -0.226
RRIRPRPPRLPRPRPRPQWTPRP | -0.0535
RRIRPRPPRLPRPRPRPQYEPRP | -0.583

Sequence | shrunken log2 fold change
RRIRPRPPRLPRPRPRPRAGPRP | 0.626
RRIRPRPPRLPRPRPRPRCWPRP | 0.689
RRIRPRPPRLPRPRPRPRDRPRP | 0.18
RRIRPRPPRLPRPRPRPRECPRP | 0.378
RRIRPRPPRLPRPRPRPRFMPRP | -0.0826
RRIRPRPPRLPRPRPRPRFNPRP | -0.181
RRIRPRPPRLPRPRPRPRFRPRP | 0.217
RRIRPRPPRLPRPRPRPRGDPRP | 1.81
RRIRPRPPRLPRPRPRPRHAPRP | 0.502
RRIRPRPPRLPRPRPRPRHDPRP | 0.186
RRIRPRPPRLPRPRPRPRKGPRP | 0.322
RRIRPRPPRLPRPRPRPRKSPRP | 0.112
RRIRPRPPRLPRPRPRPRLCPRP | 0.646
RRIRPRPPRLPRPRPRPRLHPRP | 0.624
RRIRPRPPRLPRPRPRPRLYPRP | 0.127
RRIRPRPPRLPRPRPRPRMNPRP | 0.0159
RRIRPRPPRLPRPRPRPRQCPRP | 0.126
RRIRPRPPRLPRPRPRPRQVPRP | 0.474
RRIRPRPPRLPRPRPRPRRRPRP | 0.41
RRIRPRPPRLPRPRPRPRSRPRP | 0.386
RRIRPRPPRLPRPRPRPRTLPRP | 0.0704
RRIRPRPPRLPRPRPRPRWAPRP | 0.394
RRIRPRPPRLPRPRPRPRWQPRP | 0.754
RRIRPRPPRLPRPRPRPRWRPRP | 0.542
RRIRPRPPRLPRPRPRPRWYPRP | -0.0594

Sequence | shrunken log2 fold change
RRIRPRPPRLPRPRPRPRYDPRP | 0.0231
RRIRPRPPRLPRPRPRPRYEPRP | -0.0954
RRIRPRPPRLPRPRPRPRYRPRP | 0.0725
RRIRPRPPRLPRPRPRPSAIPRP | -0.32
RRIRPRPPRLPRPRPRPSANPRP | -0.00762
RRIRPRPPRLPRPRPRPSCIPRP | -0.749
RRIRPRPPRLPRPRPRPSDQPRP | 0.029
RRIRPRPPRLPRPRPRPSDWPRP | 0.248
RRIRPRPPRLPRPRPRPSEAPRP | -0.0726
RRIRPRPPRLPRPRPRPSETPRP | -0.182
RRIRPRPPRLPRPRPRPSFNPRP | -0.629
RRIRPRPPRLPRPRPRPSFYPRP | -0.303
RRIRPRPPRLPRPRPRPSGDPRP | 0.14
RRIRPRPPRLPRPRPRPSHHPRP | -0.529
RRIRPRPPRLPRPRPRPSHLPRP | -0.168
RRIRPRPPRLPRPRPRPSIGPRP | 0.166
RRIRPRPPRLPRPRPRPSLDPRP | -0.0512
RRIRPRPPRLPRPRPRPSMAPRP | -0.0637
RRIRPRPPRLPRPRPRPSNDPRP | -0.288
RRIRPRPPRLPRPRPRPSNMPRP | -0.884
RRIRPRPPRLPRPRPRPSNQPRP | -0.45
RRIRPRPPRLPRPRPRPSNVPRP | -0.463
RRIRPRPPRLPRPRPRPSPHPRP | -0.367
RRIRPRPPRLPRPRPRPSPTPRP | 0.22
RRIRPRPPRLPRPRPRPSSKPRP | -0.217

Sequence | shrunken log2 fold change
RRIRPRPPRLPRPRPRPSSPPRP | -0.406
RRIRPRPPRLPRPRPRPSTMPRP | -0.297
RRIRPRPPRLPRPRPRPSWMPRP | -0.288
RRIRPRPPRLPRPRPRPSWWPRP | 0.394
RRIRPRPPRLPRPRPRPSYHPRP | -0.641
RRIRPRPPRLPRPRPRPSYNPRP | -0.671
RRIRPRPPRLPRPRPRPTANPRP | 0.297
RRIRPRPPRLPRPRPRPTAYPRP | -0.203
RRIRPRPPRLPRPRPRPTCPPRP | 0.0562
RRIRPRPPRLPRPRPRPTCTPRP | 0.104
RRIRPRPPRLPRPRPRPTDPPRP | 0.0787
RRIRPRPPRLPRPRPRPTEYPRP | -0.264
RRIRPRPPRLPRPRPRPTFVPRP | 0.012
RRIRPRPPRLPRPRPRPTGRPRP | 0.459
RRIRPRPPRLPRPRPRPTGSPRP | 0.146
RRIRPRPPRLPRPRPRPTIIPRP | -0.65
RRIRPRPPRLPRPRPRPTKKPRP | 0.0418
RRIRPRPPRLPRPRPRPTLRPRP | 0.449
RRIRPRPPRLPRPRPRPTMLPRP | -0.114
RRIRPRPPRLPRPRPRPTNIPRP | -0.687
RRIRPRPPRLPRPRPRPTPCPRP | 0.365
RRIRPRPPRLPRPRPRPTQSPRP | 0.436
RRIRPRPPRLPRPRPRPTQVPRP | 0.124
RRIRPRPPRLPRPRPRPTRAPRP | 0.707
RRIRPRPPRLPRPRPRPTSMPRP | -0.0129
